# According to the supplement of paper PMC10065799, “High-throughput profiling of sequence recognition by tyrosine kinases and SH2 domains using bacterial peptide display” (eLife, 2023):
# What was measured:
# EPHB2 = EPHB2 (UniProt P29323); assay: phosphorylation enrichment, bacterial display (enrichment ratio); higher = better substrate or ligand; peptides without Tyr show the background
# FGFR1 = FGFR1 (UniProt P11362); assay: as above
# FGFR3 = FGFR3 (UniProt P22607); assay: as above
# AncSZ = assay: as above
# Hck = Hck (UniProt P08631); assay: as above
# EPHB1 = EPHB1 (UniProt P54762); assay: as above
# Jak2 = Jak2 (UniProt O60674); assay: as above
# Fer (mouse) = assay: as above
# MERTK = MERTK (UniProt Q12866); assay: as above
# c-Src = assay: as above
# Fes = Fes (UniProt P07332); assay: as above
# Fyn = Fyn (UniProt P06241); assay: as above
# c-Abl (mouse) = assay: as above
# SHP2-C SH2 = assay: SH2 binding enrichment of the phosphorylated peptide, bacterial display (enrichment ratio); higher = better substrate or ligand; peptides without Tyr show the background
# Grb2 SH2 = Grb2 SH2 (UniProt P62993); assay: as above
# c-Src SH2 = assay: as above
# 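Wherever SH2 binding enrichment of the phosphorylated peptide, bacterial display is given: peptide library displayed on the E. coli surface as eCPX fusions, selected cells deep-sequenced, score is each peptide's frequency after selection divided by its frequency in the input.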
# 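Wherever phosphorylation enrichment, bacterial display is given: 11-residue human phosphosite peptides and single-mutation variants displayed on the E. coli surface, counted by deep sequencing, each peptide's frequency after selection divided by its frequency in the unselected input library; frequency after pTyr selection over input frequency; kinase dosed for 20-30% of maximal phosphorylation in three min.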
# Chain of Grb2 SH2 (P62993 whole entry, looked up): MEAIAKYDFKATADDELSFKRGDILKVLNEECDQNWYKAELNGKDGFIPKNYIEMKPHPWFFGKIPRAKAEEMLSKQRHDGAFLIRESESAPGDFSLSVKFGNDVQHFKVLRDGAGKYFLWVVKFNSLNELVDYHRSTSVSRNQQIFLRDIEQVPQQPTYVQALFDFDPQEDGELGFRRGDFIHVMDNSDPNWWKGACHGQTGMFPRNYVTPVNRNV
# Chain of EPHB1 (P54762 whole entry, looked up): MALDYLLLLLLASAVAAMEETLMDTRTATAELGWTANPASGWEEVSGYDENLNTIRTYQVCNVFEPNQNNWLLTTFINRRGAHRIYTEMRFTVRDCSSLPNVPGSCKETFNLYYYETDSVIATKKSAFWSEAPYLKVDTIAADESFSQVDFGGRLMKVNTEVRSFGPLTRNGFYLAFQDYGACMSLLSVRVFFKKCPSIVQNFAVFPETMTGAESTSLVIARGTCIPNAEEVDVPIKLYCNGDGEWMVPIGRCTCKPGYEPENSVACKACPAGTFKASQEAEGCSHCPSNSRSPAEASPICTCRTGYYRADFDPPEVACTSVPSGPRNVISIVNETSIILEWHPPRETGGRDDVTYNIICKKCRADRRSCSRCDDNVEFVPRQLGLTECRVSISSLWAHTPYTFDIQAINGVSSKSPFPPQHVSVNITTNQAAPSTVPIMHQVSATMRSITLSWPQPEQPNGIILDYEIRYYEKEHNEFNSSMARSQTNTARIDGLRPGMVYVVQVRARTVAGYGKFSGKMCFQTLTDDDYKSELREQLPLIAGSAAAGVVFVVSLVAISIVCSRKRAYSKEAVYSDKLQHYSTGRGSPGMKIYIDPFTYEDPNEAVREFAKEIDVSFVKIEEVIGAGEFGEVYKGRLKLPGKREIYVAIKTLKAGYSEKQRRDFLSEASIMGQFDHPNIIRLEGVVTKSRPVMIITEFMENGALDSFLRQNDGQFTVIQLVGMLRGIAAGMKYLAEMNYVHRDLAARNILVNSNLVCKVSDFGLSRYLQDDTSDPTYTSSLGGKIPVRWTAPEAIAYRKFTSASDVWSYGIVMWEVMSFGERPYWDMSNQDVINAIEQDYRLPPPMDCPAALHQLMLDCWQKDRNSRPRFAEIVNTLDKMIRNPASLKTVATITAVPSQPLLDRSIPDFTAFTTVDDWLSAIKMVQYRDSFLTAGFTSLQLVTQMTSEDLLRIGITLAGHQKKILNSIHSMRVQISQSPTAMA
# Chain of Jak2 (O60674 whole entry, looked up): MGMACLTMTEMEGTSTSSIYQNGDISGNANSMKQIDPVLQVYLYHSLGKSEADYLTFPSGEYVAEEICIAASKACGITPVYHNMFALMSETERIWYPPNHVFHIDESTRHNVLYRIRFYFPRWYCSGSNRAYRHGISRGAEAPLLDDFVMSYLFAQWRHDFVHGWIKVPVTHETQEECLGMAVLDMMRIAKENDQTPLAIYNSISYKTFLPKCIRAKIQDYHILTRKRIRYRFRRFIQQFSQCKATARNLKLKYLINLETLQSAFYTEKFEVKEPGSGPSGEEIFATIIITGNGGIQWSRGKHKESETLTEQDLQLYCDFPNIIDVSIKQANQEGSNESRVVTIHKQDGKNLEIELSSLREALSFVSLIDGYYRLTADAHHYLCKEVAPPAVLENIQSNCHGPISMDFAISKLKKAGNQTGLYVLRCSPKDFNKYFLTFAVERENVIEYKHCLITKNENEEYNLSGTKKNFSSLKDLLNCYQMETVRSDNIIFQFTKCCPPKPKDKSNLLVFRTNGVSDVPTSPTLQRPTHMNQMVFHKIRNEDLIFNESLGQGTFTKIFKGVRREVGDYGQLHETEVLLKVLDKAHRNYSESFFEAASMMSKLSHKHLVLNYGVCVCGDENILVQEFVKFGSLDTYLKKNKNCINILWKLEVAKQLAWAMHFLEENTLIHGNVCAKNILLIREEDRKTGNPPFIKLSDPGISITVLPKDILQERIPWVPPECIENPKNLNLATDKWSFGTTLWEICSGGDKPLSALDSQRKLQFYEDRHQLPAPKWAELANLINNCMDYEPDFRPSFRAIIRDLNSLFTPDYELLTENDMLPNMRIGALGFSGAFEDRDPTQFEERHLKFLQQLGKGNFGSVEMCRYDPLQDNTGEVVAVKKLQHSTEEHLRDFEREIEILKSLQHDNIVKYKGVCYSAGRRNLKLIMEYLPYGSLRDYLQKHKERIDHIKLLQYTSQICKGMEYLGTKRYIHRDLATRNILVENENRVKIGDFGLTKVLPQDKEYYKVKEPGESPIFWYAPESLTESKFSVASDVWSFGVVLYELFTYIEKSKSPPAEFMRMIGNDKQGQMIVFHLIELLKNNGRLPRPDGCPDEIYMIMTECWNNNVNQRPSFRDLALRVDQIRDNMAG
# Chain of FGFR3 (P22607 whole entry, looked up): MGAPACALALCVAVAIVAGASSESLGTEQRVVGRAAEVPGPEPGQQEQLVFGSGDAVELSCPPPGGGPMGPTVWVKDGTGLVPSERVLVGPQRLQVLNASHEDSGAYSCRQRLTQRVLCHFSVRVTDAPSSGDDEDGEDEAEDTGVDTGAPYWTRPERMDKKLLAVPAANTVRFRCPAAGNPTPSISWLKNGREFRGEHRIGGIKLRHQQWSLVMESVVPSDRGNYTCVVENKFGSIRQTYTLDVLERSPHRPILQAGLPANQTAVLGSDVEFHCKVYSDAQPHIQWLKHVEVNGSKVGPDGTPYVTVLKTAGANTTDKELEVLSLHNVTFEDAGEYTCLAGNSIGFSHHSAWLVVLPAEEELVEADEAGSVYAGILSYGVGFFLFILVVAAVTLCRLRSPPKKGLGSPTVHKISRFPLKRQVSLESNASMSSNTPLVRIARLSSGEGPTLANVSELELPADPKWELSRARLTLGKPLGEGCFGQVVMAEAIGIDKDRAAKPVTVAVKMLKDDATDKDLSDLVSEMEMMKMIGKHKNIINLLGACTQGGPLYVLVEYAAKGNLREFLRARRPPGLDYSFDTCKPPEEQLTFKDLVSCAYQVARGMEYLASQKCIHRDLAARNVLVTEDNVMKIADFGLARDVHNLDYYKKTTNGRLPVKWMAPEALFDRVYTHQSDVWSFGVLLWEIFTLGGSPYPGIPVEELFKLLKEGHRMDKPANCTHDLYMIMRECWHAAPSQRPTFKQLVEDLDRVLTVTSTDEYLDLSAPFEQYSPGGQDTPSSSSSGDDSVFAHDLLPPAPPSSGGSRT
# Chain of FGFR1 (P11362 whole entry, looked up): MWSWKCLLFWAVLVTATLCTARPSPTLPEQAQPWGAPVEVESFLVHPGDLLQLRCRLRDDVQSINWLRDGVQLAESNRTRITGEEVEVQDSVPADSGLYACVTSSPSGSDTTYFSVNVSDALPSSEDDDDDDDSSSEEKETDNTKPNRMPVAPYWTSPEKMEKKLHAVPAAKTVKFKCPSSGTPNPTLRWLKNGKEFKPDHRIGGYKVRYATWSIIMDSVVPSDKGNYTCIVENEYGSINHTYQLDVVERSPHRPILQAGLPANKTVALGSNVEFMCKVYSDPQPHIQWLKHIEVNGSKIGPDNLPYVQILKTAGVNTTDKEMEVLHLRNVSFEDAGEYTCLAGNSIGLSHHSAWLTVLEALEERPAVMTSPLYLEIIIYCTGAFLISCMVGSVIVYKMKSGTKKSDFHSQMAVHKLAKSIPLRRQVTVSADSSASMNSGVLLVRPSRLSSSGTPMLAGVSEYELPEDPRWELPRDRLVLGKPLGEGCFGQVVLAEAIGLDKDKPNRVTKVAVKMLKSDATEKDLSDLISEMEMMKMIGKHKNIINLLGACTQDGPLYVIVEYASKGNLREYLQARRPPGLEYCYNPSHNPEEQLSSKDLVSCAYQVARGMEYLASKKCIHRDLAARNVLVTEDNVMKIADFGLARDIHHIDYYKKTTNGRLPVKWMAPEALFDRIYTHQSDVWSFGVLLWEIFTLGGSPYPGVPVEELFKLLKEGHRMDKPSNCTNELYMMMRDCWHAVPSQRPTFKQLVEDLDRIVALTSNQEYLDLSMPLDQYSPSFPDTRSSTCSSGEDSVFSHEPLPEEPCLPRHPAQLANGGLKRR
# Chain of Fes (P07332 whole entry, looked up): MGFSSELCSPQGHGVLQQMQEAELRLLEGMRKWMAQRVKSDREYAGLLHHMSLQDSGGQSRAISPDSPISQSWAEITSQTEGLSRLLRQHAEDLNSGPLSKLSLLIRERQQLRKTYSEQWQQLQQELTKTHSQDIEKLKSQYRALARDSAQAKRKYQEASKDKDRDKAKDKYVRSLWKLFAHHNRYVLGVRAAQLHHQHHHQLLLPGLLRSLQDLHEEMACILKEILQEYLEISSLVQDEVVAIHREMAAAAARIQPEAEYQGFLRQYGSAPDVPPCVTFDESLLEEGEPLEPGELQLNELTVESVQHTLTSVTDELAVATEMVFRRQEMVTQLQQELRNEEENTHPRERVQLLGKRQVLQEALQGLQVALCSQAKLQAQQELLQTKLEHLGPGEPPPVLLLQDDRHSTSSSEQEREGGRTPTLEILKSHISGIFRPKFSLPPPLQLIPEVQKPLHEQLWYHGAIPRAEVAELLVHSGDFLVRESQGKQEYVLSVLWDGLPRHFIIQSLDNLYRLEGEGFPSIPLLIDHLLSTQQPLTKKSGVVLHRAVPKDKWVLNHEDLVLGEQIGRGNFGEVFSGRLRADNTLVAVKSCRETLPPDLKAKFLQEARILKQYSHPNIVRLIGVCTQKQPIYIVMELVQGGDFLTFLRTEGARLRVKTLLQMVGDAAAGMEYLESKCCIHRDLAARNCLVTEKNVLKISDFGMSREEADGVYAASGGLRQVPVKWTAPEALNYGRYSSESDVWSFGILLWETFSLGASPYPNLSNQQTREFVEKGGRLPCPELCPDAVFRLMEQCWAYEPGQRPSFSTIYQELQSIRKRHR
Sequence,phosphorylation enrichment (EPHB2),phosphorylation enrichment (FGFR1),phosphorylation enrichment (FGFR3),phosphorylation enrichment (AncSZ),phosphorylation enrichment (Hck),phosphorylation enrichment (EPHB1),phosphorylation enrichment (Jak2),phosphorylation enrichment (Fer (mouse)),phosphorylation enrichment (MERTK),phosphorylation enrichment (c-Src),phosphorylation enrichment (Fes),phosphorylation enrichment (Fyn),phosphorylation enrichment (c-Abl (mouse)),SH2 binding enrichment (SHP2-C SH2),SH2 binding enrichment (Grb2 SH2),SH2 binding enrichment (c-Src SH2)
DRLASYLDKAR [KRT14_Y129_V133A],0.324,0.37,0.45,0.586,0.342,0.297,0.627,0.403,0.378,0.349,0.634,0.373,0.914,0.59,0.874,0.419
DRLASYLDKMR [KRT17_Y98_V102M],0.467,0.483,0.513,0.697,0.473,0.376,0.667,0.436,0.45,0.459,0.912,0.751,0.606,0.529,1.03,0.488
DRLASYLDKVR [KRT10_Y160],0.429,0.435,0.471,0.619,0.454,0.4,0.533,0.336,0.379,0.345,0.643,0.378,0.519,0.626,0.848,0.507
DSGRDYVSQFE [APOA1_Y53],0.492,0.462,0.673,0.914,0.529,0.685,0.665,0.478,0.409,0.403,0.922,0.489,0.601,0.631,0.875,0.487
DTFDPYLDVAL [USP36_Y268_YF],0.622,0.658,0.857,1.18,0.701,0.641,1.25,1.52,0.557,0.712,1.24,0.704,0.833,0.953,0.707,0.414
DTKPVYQNLRQ [BOD1_Y82_A81V],0.44,0.511,0.456,0.596,1.29,0.549,0.621,0.507,0.533,1.07,0.752,1.07,0.708,1.65,20.8,3.29
DTQNSYGCATS [TSC1_Y304],0.445,0.422,0.707,0.7,0.498,0.432,0.489,0.483,0.393,0.555,0.834,0.433,0.884,0.918,0.867,0.595
DTQNSYWCATS [TSC1_Y304_G305W],0.456,1.07,0.832,0.952,0.518,0.535,0.805,0.405,1.36,0.52,0.916,0.485,0.633,0.849,1.01,0.884
DVVKDYAFVHM [RBM14_Y114],5.38,3.87,2.45,0.929,0.435,7.47,0.661,2.58,0.574,0.466,0.933,0.419,0.659,0.608,0.823,0.472
DYTEAYNSKIK [CLK1_Y305_P307S],0.449,0.514,0.585,0.897,0.382,0.446,0.965,0.377,0.454,0.492,0.969,0.339,0.584,0.582,0.587,1
EALSLYTKLMN [STAM_Y371],0.639,0.391,0.856,1.39,0.505,0.615,1.49,0.509,0.411,0.551,1.48,0.402,0.832,1.41,0.713,1.02
EATKGHLDDPT [G6PD_Y322_Y322H],0.488,0.467,0.664,0.851,0.496,0.643,0.856,0.55,0.448,0.453,1.04,0.584,0.821,0.6,0.815,0.598
EATKVYLDDPT [G6PD_Y322_G321V],0.558,0.428,0.656,0.852,0.458,0.482,0.803,0.451,0.385,0.357,0.967,0.444,0.656,0.746,0.837,0.534
ECKHLYSRKEG [PTPN11_Y263_L261H],0.285,0.463,0.397,0.451,0.329,0.406,0.419,0.4,0.388,0.388,0.579,0.407,0.458,0.711,0.995,0.717
EDDPEYMRLRN [ADD2_Y31],0.594,0.785,0.887,1.2,0.724,0.674,1.12,0.589,0.414,0.509,1.17,0.601,0.823,0.587,0.838,0.506
EDEGLYMVRVP [MYOM3_Y343],1.71,0.56,0.736,1.58,4.63,1.74,1.24,1.89,1.79,3.41,1.43,3.03,0.812,0.628,0.776,0.472
EDKFMYSEFPQ [PTEN_Y240_F241S],1.05,1.49,1.45,1.51,2.07,0.771,1.14,0.734,2.02,2.91,1.21,1.25,1.03,0.739,0.951,0.542

Sequence,phosphorylation enrichment (EPHB2),phosphorylation enrichment (FGFR1),phosphorylation enrichment (FGFR3),phosphorylation enrichment (AncSZ),phosphorylation enrichment (Hck),phosphorylation enrichment (EPHB1),phosphorylation enrichment (Jak2),phosphorylation enrichment (Fer (mouse)),phosphorylation enrichment (MERTK),phosphorylation enrichment (c-Src),phosphorylation enrichment (Fes),phosphorylation enrichment (Fyn),phosphorylation enrichment (c-Abl (mouse)),SH2 binding enrichment (SHP2-C SH2),SH2 binding enrichment (Grb2 SH2),SH2 binding enrichment (c-Src SH2)
EEGRVYVFHLS [ITGAE_Y549_R552H_YF],0.573,0.557,0.756,1.18,0.46,0.672,0.958,0.648,0.48,0.522,1.25,0.512,0.825,0.567,0.888,0.482
EEGRVYVFRLS [ITGAE_Y549_YF],0.605,0.508,0.836,1.13,0.617,0.606,1.14,0.533,0.475,0.625,1.37,0.509,0.812,0.806,1.05,0.665
EEHIPCTHMNG [INSR_Y1361_Y1361C],0.597,0.592,0.632,0.916,0.435,0.581,1.03,0.612,0.552,0.497,0.867,0.436,0.865,0.7,0.709,0.649
EEKSCYILHSS [PATJ_Y783_E780K],0.647,0.755,0.704,1.08,0.651,0.669,0.744,0.622,0.449,0.514,1.22,0.753,0.779,0.893,0.805,0.628
EEQFFYEKAIL [BCCIP_Y257_E254Q],0.48,0.442,0.588,1.11,0.654,0.434,0.828,3.96,0.502,0.608,0.999,0.466,0.748,0.795,1.04,0.53
EFENSYIFDIN [GAB1_Y83],0.58,0.478,0.695,1.25,0.488,0.435,1.16,0.489,0.419,0.432,1.16,0.519,0.501,0.854,0.82,0.581
EFFDGYWGFSV [ITGA2B_Y265_YF],0.58,6.3,4.7,1.43,3.31,0.633,8.01,0.54,1.14,5.54,1.15,3.98,1.53,0.634,0.705,0.657
EFFENYIEELK [PARP4_Y218_F215Y_YF],0.669,0.488,0.744,1.3,0.533,0.617,1.41,0.532,0.425,0.501,1.35,0.421,0.869,0.663,0.941,0.502
EFGFRYELVQF [UGGT2_Y1289_Y1285F_YF],0.585,0.477,0.853,1.26,0.509,0.592,1.11,0.887,0.375,0.315,1.21,0.433,0.64,0.859,0.849,1.4
EFGFRYELVQY [UGGT2_Y1289_Y1285F],0.507,0.512,0.617,1.11,0.429,0.573,1.05,0.611,0.338,0.393,1.14,0.329,0.627,0.501,0.566,1.39
EFQLPYFNMVP [BMPR1A_Y457_YF],0.46,5,3.58,1.01,0.596,0.389,7.21,0.348,0.584,2.12,1.01,0.547,0.618,0.95,2.82,0.751
EGLKVYVNGTL [ADGRD1_Y183],0.68,0.527,1.05,1.22,0.457,0.633,1.24,0.491,0.469,0.418,1.33,0.497,0.848,0.757,1.68,0.502
EIASHYRHLLR [ZBTB46_Y14_T11A],0.42,0.416,0.528,0.597,0.573,0.357,0.703,0.516,0.421,0.421,0.585,0.428,0.415,0.794,0.759,0.522
EILLSYLRTGY [TGM1_Y365],0.612,0.559,0.749,1.06,0.536,0.544,1.4,0.548,0.413,0.462,1.1,0.524,0.922,1.14,1.17,0.845
EILLSYPRTGF [TGM1_Y365_L366P_YF],0.533,0.488,0.555,0.695,0.534,0.562,0.872,0.397,0.411,0.356,0.935,0.541,0.515,0.83,0.821,0.528
ELELLYLDRNS [NYX_Y284],0.519,0.493,0.634,0.934,0.551,0.518,0.761,0.408,0.347,0.515,0.904,0.494,0.573,0.7,1.03,0.59
